In paper PMC9262907, “Modulating mitofusins to control mitochondrial function and signaling” (Nature Communications, 2022):
Where no end group is shown, it is not given here.

Columns and labels:
[1] = molecular target: T1, MFN2-HR2 domain (residues 678–757) (human, UniProt O95140 678-757); test: MST
T1 chain: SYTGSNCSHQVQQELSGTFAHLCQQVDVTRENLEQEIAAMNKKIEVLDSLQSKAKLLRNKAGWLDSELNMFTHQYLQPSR

[2] = molecular target: the molecule itself; test: native gel or EMSA; BN-PAGE of digitonin lysates of mitochondria isolated from MEFs, without GTP; blot with anti-MFN2

QIAEAVRLIMDSLHMAAR (also: 'Gly' in name not defined) [367–384Gly peptide]
Kd [1]: 3000 nM

QDRLKFIDKQLELLAQDYKLR (also: 'Gly' in name not defined) [398–418Gly peptide]
Kd [1]: 1500 nM

B1: mitofusin-2 (MFN2) of MEF mitochondria (natural protein, mouse (endogenous in MEFs), UniProt Q80U63 1-757, looked up)
chain: MSLLFSRCNSIVTVKKDKRHMAEVNASPLKHFVTAKKKINGIFEQLGAYIQESASFLEDTHRNTELDPVTTEEQVLDVKGYLSKVRGISEVLARRHMKVAFFGRTSNGKSTVINAMLWDKVLPSGIGHTTNCFLRVGGTDGHEAFLLTEGSEEKKSVKTVNQLAHALHQDEQLHAGSMVSVMWPNSKCPLLKDDLVLMDSPGIDVTTELDSWIDKFCLDADVFVLVANSESTLMQTEKQFFHKVSERLSRPNIFILNNRWDASASEPEYMEEVRRQHMERCTSFLVDELGVVDRAQAGDRIFFVSAKEVLSARVQKAQGMPEGGGALAEGFQVRMFEFQNFERQFEECISQSAVKTKFEQHTVRAKQIAEAVRLIMDSLHIAAQEQRVYCLEMREERQDRLRFIDKQLELLAQDYKLRIKQITEEVERQVSTAMAEEIRRLSVLVDEYQMDFHPSPVVLKVYKNELHRHIEEGLGRNLSDRCSTAIASSLQTMQQDMIDGLKPLLPVSMRNQIDMLVPRQCFSLSYDLNCDKLCADFQEDIEFHFSLGWTMLVNRFLGPKNSRRALLGYSDQVQRPLPLTPANPSMPPLPQSSLTQEELMVSMVTGLASLTSRTSMGILVVGGVVWKAVGWRLIALSFGLYGLLYVYERLTWTTKAKERAFKRQFVEYASEKLQLIISYTGSNCSHQVQQELSGTFAHLCQQVDITRDNLEQEIAAMNKKVEALDSLQSRAKLLRNKAGWLDSELNMFTHQYLQPSR
notes: mitofusin-2 (MFN2), endogenous in mouse embryonic fibroblasts, detected with an anti-MFN2 antibody; source: endogenous, mitochondria isolated from MEFs, digitonin lysate
stoichiometry N [2]: 2
